From the nanobody polyreactivity screen of Harvey et al. (2022)

Assay: yeast display, Sf9 membrane polyspecificity reagent, FACS + sequencing; frameworks hold sequencing errors
Summary of the method: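 Galactose-induced (36–48 hours) yeast carrying a synthetic nanobody display library were exposed to 10% biotinylated, detergent-solubilized Sf9 membrane reagent at 4 °C for 1 hour. FACS followed streptavidin microbead enrichment, using low and high (top ~1%) gates for expression (anti-HA) and reagent binding (streptavidin). Colony PCR, MiSeq 2 × 250 sequencing and CDR-length filtering followed. Labels for polyreactivity reflect the gate of origin.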

| Sequence | polyreactivity (PSR sort gate) |
| --- | --- |
| QVQLVESGGGLVQAGGSLRLSCAASGFTFQVNTMGWYRQAPGKERELVAAISWSGGSTYYADSVKGRFTISRDNAKNTVYLQMNSLKPEDTAVYYCNAVPVSYRGGYWGQGTQVTVSS | low polyreactivity |
| QVQLVESWGGLVQAGGSLRLSCAASGRIFKLYAMGWYRQAPGKERELVAGINWSGGTTYYAESVKGRFTISRDNAKNTVYLQMNSLKPEDTAVYYCAARTRNGAGYYWGQGTQVTVSS | high polyreactivity |
| QVQLVESGGGLVQAGGSLRLSCAASGSTFVGYAMGWYRHAPGKERELVAAISSSGGRTNYADSVKGRFTISRDNAKNTVYLQMNSLKPEDTAVYYCAAKAYRSPVYYWGQGTQVTVSS | high polyreactivity |
| QDQLVESGGGLVQAGGSLRLSCAASGRIFKYNAMGWYRQAPRKERELVAAITRGGSTNYADSVKGRFTISRDNAKNTVYFQLNSLKPEDTEVYYCAALRSRYGRDMDSWGQGTQVSVSS | high polyreactivity |
| QVQLVESGGGLVQAGGSLRISCAASGFIFVFYDRGWYRQAPGKEREFVAGITRNDGSTYYADSVKGRFKISRDNAKNTVYLQMNSLKPEDTAVYYCAAADSTWFDWGNYWYYYWGQGTQVTVSS | low polyreactivity |
| QVQLVESGVGLVQAGGSLRLSCAASGRTFPYYAMGWYRQAPGKERELVAAISRRGASTYYADSVKGRFTISRDNAKNTVYLQINSLKPEDTAVYYCNAVYRGYYSGELDYWGQGTQVTVSS | high polyreactivity |
| QVQLVESGGGLVQAGGSLRLSCAASGRTIWWYAMGWYRQAPGKERELVAAITWIGGSTYYADSVKGRFTISRDNAKNTVYLKMNSLKPEDTAVYFCNVVYYGRTWVPYEWEYDYWGQGTQVTVSS | low polyreactivity |
| QVQLVESGGGLVQAGGSLRLSCAASGRTYTRYALGWYRQAPGKERELVAAISGGGGSTYYADSVKGRFTISRDNAKNTVYLQMNSLKPEDTAVYYCNAAARGSSFDYWGQGTQVTVSS | low polyreactivity |
| QVQLVESGGGLVQAGGSHPLSCAASGRTFGHNAMRSYRQAPGKERELVAAITRSGGRTFYADSVKGRFTISRDNAMNTVYLQMNSLKPEDTAVFYCATDYYRYRDYAYYWLDYNYWGQGTQVTVSS | high polyreactivity |
| KVQLLESGGGLFQAGGSVRLSCAASGSIIFTYAMGWSRQSPGTEREWVAVITWCGGSTYYADSVKGRFTISRDYAKNTVYLQMNSLKPEDTAVYYCAKDSYYYRRDVTVDYWVQGTQVTVSS | low polyreactivity |
| HVQLVESGGGLVHAGGSLRLRCAASGFTFTTYAMGWYRQAPWKEMELVARISRRSGSTYYADSVKGRFTLSRDNAKNTVYLQMNSLKPDDTAVYYCNADVDRSTTIFDYWGQGTQVTVSS | high polyreactivity |
| QVQLVESGGGLVQAGGSLRLSCAASGSIFDGNAMGWYSQAPGKERELVAAITTDYRTYYADSVKGRFTISRDNAKNTFYLQMNSLKPEDTAVYYCNVVIYYFNSRTVYYDYDYWGQGTQVTVSS | high polyreactivity |
| QVQLVESGGGLVQAGGSLRLSCAASGFTFWYNTMGWYRQAPGKERELVAAINRGGGRTYYADSVKGRFTISRDNAKNTVYLQMNSLKPEDTAVYYCAKKDYYSKVGGPQSEYDYWGQGTQVTVSS | low polyreactivity |
| QVQLVESGGGLVQAGGSLRLSCAASGFIFGYNAMGWYRQSPGKERELVAAISTRGGSTYYADSVKGRFTISRDNAKNTVYLQMNSLKPEDTAVYYCNKVTRVPFDSWGQGTQVTVSS | high polyreactivity |
| QVQLVESGGGLVQAGGSLRLSCAASGRTFYGYAIGRYIQAPGNERELVAAISRRGGSTNYADSVKGRFTISRDNAKNTVFLQMNSLKPEDTAVYYCNANYYRTHYDYWGQGTQVTVSS | high polyreactivity |
| QVQLVESGGGLDQARGSLRLSCAASGRTFRYYAMGWYRQAPWKERELVAAISSRGTRTYYADSVKGRFTISRDNAKNTVYLQMNSLKPEDTAVYYCATRYYQELSYDYWGQGTQVIVSS | high polyreactivity |

| Sequence | polyreactivity (PSR sort gate) |
| --- | --- |
| QVQLVESGGGLVQAGGSLRLSCAASGGIFTYNAMGWYIQAPGKERELVAAITWNGGRTYYADSVKGRFTISRDTAKNTVYLQMNSLKPEDTAVYYCAARSPVKRQSRKQYYYWGQGTQVTVSS | high polyreactivity |
| QVQLVESGGGLVQAGGSLRLSCAASGSTFGPYAMGWYRQAPGKERELVAAIRSDGGTYYADSVTGRFTISRDNAKNTVYLQMNSLKPEDTAVYYCNAVPVGWRYRQYDYWGQGPQVTVSS | high polyreactivity |
| QVQLVESGGGLGQAGGSLLLSCAASGSTFKYNAMGWNRKAPGKERELVPAISRGGRTNYADSVKGRFKISRDNAKNTVYLQMNSLKPEDTAVYYCAKDVAGLFHVGALYYYWGQGTQVTVSS | low polyreactivity |
| QVQLVESGGGLVQAGGSLRLSCAASGSIFPLYGMGWYRQAPGKERELVGAISIGGRTNYADSVKGRFTISRDNAKNTVYLQMNSLKPEDTAVYYCNAVSKFVYRNRILWYDYWGQGTQVTVSS | high polyreactivity |
| QVQLVESGGGLVQAGGSLRLSCAASGNTFYHYVMGWYRQAPGKESELVAAISRSGGSTYYADSVKGRFTISRDNAKNTVYLQMNSLKPEDTAVYYCAARTSIGLLYDYWGQGTQVTVSS | high polyreactivity |
| QVQLVESGGGLVQAGGRLRLRCAASGIIFTAYVMGWYRQAPGKERELVADITSGDGSTYYADSVKGRFTISRDNAKNTVYLQMNSLKPEDTAVYYCAADYGQLVFDSYRREYDYWGQGTQVTVSS | low polyreactivity |
| QVQLVESGGGLVQAGGSLRLICAASGTTFLSYAMGWYRQAQGKDRELVAAISWSGGRTYYAHSVKGRFTISRDNAKNTVYLQMNSLKPEDTAVYYCAAPHVPFTKHEYEYWGQGTQVTLSS | low polyreactivity |
| QVQLVESGGGLVQAGGSLRLSCAASGRTFNGYAMGWYRQAPGKERELVAAISSSGGSTYYADSVKGRFTISRDNAKNTVYLQMNSLKPEDTAVYYCAARRANGFNYWGQGTQVTVSS | high polyreactivity |
| QVQLVESGGGLVQAGGSLRLSCAASGRIFRYYAMGWYRQAPGKERELVAAISWSGGRTYYADSVKGRFTISRDNAKNSVYLQMNSLIPEDTAVFYCYAGYLYPGYFVREYDYWGQGTQVTVSS | high polyreactivity |
| QVQLVESGGGLVQAGGSLRLSCAASGSTFNDYVMGWYRKAPGKERELVAAISRSGGSTYYADSVKGRFTISRDNAKNTVYIQMNSLKPEDTAFYYCNSDVGYWWGYYGYDYWGQGTQVTVSS | high polyreactivity |
| QVQLVESGGGLVQAGGSLRLSCAASGRTLFPNVMGWYRQAPRQERELFAAITTIGGSTYYADSVKGRITISRDNAKNTVFLQMNSLKPEDTEVYYCNARYRGRGLKFGYWGQGTQVTVSS | high polyreactivity |
| QVQRVESGGGLVQAGGSLRLSCAASGSLFYLYAMGWYRQAPGKERELVARITIRGGSTYYADSVKGRFTISRDNAKNTVYLQMNSLKPEDTAVYYCAARRPYGDYDYWGQGTQVTVSS | high polyreactivity |
| QVQLVESGGGLVQAGGSLRLSCAASGFISRYYYMGWYRQAPGKERELVAAIRWSGDRTYYADSVKGRFTISRDNAKNTVYLLMNSLKPEDTAVYYCNADVVLGRSWRGYWGQGTQVTVSS | high polyreactivity |
| QVQLVESGGGLVQAGGSLRLSCAASGSTFLNYAMGWYRQAPGKERELVASISYSAGSTYYADSVKGRFTISRDNAKNTVYLQMNSLKPEDTAVYYCAARLARAGYWRRNYYYWGQGTQVTVSS | high polyreactivity |
| QVQLVESGGGLDQAGGSLRLSCAASGRTFFDYAMGWYRQATGKERELVAAINWSGGRTYYADSVKGRFTISRDNAKNTVYLQMISLKPEDTAVYYCAAIYGSLYPTGQTRRDYYSWGQGTKVTVSS | low polyreactivity |
